Results reported in patent US20080286287A1.

Molecular target: aggrecan
Assay: solid-phase binding assay: aggrecan-coated wells, 10 ng/well IGFBP-2, detected with 125I-IGF-I

“HBD-IGFBP-2 mutant (179PKKLRP184 mutated to 179PNNLAP184) (from UniProt P18065 37-325)” was tested, and the reduction in binding (against native IGFBP-2) was 75%.
